Source: article PMC6237438

Tests used:
[1] = biological target: VRC01GL IgG (inferred germline precursor of the VRC01 antibody) (human); experiment: BLI; IgG immobilised on anti-AHC biosensors (20 µg/ml in PBS); DS-SOSIP trimer or 426c core in solution, dilution series; Octet Red 96, 29°C, 500 r.p.m.; kinetic buffer (1X PBS, 0.01% BSA, 0.02% Tween 20, 0.005% NaN3); 1:1 binding model; relative apparent affinities
[2] = biological target: 12A21GL IgG (human); experiment: as above
[3] = biological target: VRC01GL Fab (human); experiment: BLI; Fab immobilised on anti-human Fab-CH1 (FAB2G) biosensors; 426c core in solution; Octet Red 96, 29°C, 500 r.p.m.; kinetic buffer (1X PBS, 0.01% BSA, 0.02% Tween 20, 0.005% NaN3); 1:1 binding model; relative apparent affinities
[4] = biological target: VRC01GL IgG (inferred germline precursor of the VRC01 antibody); experiment: BLI; conditions: 426c core (293F-expressed) injected at 0.5, 1, 2.5, 4, 5, 10, 20, 40, 80, 160 µM

Work on “426c S278T core, HEK293 GnTI-/--expressed (domain or fragment)” yielded a fold change of KD against the 426c core [1] of 10 fold and a fold change of KD against the 426c core [2] of 10 fold.

“426c core (wild-type NLGSs), HEK293F-expressed (domain or fragment)” showed a Kd [3] of 11000 nM.

Work on “426c DS-SOSIP D3 trimer (from UniProt Q2N0S6 1-860) (complex)” yielded a Kd [1] of 43 nM.

Work on “426c core (wild-type NLGSs), HEK293F-expressed S278A” yielded a Kd [4] of 1900 nM.

“426c core (wild-type NLGSs), HEK293F-expressed S278A; T462A” was tested, and the Kd [4] was 2500 nM.

For “EndoH-treated 426c core (HEK293 GnTI-/--expressed) (domain or fragment)”, the Kd [1] was 245 nM.

Work on “426c S278A core, HEK293 GnTI-/--expressed (domain or fragment)” yielded a Kd [1] of 204 nM.

Substance “426c core (wild-type NLGSs), HEK293F-expressed S278A; T465A” has a Kd [4] of 8900 nM.

“426c core (wild-type NLGSs), HEK293 GnTI-/--expressed (domain or fragment)” was tested, and the Kd [1] was 2000 nM and the Kd [3] was 15000 nM.
